Laboratory results as given in paper PMC4943861 (ACS chemical biology, 2015).

Key:
Abl3D = Abl3D (UniProt P00519 38-512); assay: cell-based or functional assay
Fyn = Fyn (human (endogenous in K562), UniProt P06241 1-537); assay: cell-based or functional assay
Fyn, sequence (P06241 whole entry): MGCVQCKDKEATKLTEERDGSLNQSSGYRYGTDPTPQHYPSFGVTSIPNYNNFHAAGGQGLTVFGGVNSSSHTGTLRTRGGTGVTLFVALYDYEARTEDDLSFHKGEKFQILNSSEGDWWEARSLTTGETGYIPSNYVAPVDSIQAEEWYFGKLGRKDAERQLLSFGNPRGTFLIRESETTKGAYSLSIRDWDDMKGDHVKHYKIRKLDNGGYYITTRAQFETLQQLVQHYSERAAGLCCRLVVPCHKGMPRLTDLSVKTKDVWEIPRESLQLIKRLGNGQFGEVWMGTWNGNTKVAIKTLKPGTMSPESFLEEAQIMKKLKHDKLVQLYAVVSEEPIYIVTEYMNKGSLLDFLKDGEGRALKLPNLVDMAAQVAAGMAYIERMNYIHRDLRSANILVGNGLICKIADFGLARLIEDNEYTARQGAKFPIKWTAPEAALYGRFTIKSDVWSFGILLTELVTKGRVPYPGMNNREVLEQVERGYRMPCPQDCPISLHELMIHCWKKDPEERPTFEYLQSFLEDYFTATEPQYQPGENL

Abl3D, sequence (P00519 38-512): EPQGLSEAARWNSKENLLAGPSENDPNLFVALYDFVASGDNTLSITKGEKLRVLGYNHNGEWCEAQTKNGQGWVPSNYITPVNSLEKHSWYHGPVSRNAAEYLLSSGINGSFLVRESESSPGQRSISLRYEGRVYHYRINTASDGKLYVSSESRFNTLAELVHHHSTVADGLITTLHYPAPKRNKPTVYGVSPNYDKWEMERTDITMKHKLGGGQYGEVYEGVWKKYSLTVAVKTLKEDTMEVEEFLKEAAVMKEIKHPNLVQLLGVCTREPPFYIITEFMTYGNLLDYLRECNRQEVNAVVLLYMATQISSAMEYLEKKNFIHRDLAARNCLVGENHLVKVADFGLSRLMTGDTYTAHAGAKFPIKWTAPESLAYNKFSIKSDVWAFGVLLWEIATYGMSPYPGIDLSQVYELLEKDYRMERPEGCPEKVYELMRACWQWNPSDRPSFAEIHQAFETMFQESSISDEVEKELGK

B1: SNAP(HA4)-4 (designed binder)
chain: DKDCEMKRTTLDSPLGKLELSGCEQGLHEIIFLGKGTSAADAVEVPAPAAVLGGPEPLMQATAWLNAYFHQPEAIEEFPVPALHHPVFQQESFTRQVLWKLLKVVKFGEVISYSHLAALAGNPAATAAVKTALSGNPVPILIPCHRVVQGDLDVGGYEGGLAVKEWLLAHEGHRLGKVSSVPTKLEVVAATPTSLLISWDAPMSSSSVYYYRITYGETGGNSPVQEFTVPYSSSTATISGLSPGVDYTITVYAWGEDSAGYMFMYSPISINYRT
modifications: compound 4 (O6-benzylguanine derivative of the pan-kinase inhibitor 2) covalently conjugated to SNAPtag
IC50, in vitro kinase activity assay of Abl3D (Abl3D): 8.3 nM | IC50 of kinase activity of purified FYN, relative to monovalent 4 (Fyn): 8 fold more potent than 4
